Laboratory results reported in publication PMC12290929, “Analytical and Structural Evaluation of Recombinant Human Serum Albumin and Fragment F8 for Aptamer-Based Urinary Biomarker Detection”.

Assays:
rHSA (E. coli) = rHSA (E. coli) (Homo sapiens, UniProt P02768 25-609); assay: graphene oxide fluorescence recovery (Cy5 aptasensor); GO-quenched aptamer; protein 0.37-1500 ug/mL; sigmoidal, R2 > 0.99; PBS pH 7.4, graphene oxide (15 uL of 5 mg/mL) + Cy5-H8 (15 uL of 5 uM) preincubated 5 min at room temperature, 200 uL final volume, 30 min with protein in the dark, ex 630/em 670 nm; conditions: protein: recombinant; tags: His-tag; label: 5'-Cy5
rF8 (HSA fragment F8) = rF8 (HSA fragment F8) (Homo sapiens, UniProt P02768); assay: graphene oxide fluorescence recovery (Cy5 aptasensor); GO-quenched aptamer; protein 0.37-1500 ug/mL; sigmoidal, R2 > 0.99; response comparable to full-length rHSA; PBS pH 7.4, graphene oxide (15 uL of 5 mg/mL) + Cy5-H8 (15 uL of 5 uM) preincubated 5 min at room temperature, 200 uL final volume, 30 min with protein in the dark, ex 630/em 670 nm; conditions: protein: recombinant; tags: His-tag; label: 5'-Cy5
rHSA (rice) = rHSA (rice) (Homo sapiens, UniProt P02768 25-609); assay: graphene oxide fluorescence recovery (Cy5 aptasensor); GO-quenched aptamer; protein 0.37-1500 ug/mL; sigmoidal, R2 > 0.99; lower fluorescence than E. coli proteins; PBS pH 7.4, graphene oxide (15 uL of 5 mg/mL) + Cy5-H8 (15 uL of 5 uM) preincubated 5 min at room temperature, 200 uL final volume, 30 min with protein in the dark, ex 630/em 670 nm; conditions: protein: commercial; label: 5'-Cy5

Measured: binding result

Sequence of rF8 (HSA fragment F8) (P02768 520-609): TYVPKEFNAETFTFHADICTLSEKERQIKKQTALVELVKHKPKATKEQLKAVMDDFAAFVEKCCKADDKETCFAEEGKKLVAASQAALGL
Sequence of rHSA (E. coli) (P02768 25-609): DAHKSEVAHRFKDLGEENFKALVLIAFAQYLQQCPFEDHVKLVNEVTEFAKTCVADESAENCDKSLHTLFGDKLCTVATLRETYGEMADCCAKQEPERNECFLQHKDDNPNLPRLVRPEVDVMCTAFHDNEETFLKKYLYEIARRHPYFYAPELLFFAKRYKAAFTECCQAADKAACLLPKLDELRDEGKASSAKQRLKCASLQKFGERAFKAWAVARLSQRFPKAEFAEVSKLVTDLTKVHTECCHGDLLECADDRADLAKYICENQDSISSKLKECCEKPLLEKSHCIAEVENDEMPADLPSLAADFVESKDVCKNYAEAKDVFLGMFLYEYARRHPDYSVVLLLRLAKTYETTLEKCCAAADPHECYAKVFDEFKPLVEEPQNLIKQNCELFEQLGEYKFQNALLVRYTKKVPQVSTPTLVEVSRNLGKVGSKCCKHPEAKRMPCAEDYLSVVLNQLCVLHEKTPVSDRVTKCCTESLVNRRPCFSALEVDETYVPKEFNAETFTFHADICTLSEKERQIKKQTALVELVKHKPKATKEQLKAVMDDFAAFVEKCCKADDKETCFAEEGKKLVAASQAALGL
Sequence of rHSA (rice) (P02768 25-609): as above

B1: H8 aptamer (ssDNA)
DNA: ATACCAGCTTATTCAATTCCCCCGGCTTTGGTTTAGAGGTAGTTGCTCATTACTTGTACGCTCCGGATGAGATAGTAAGTGCAATCT
binds: all assays above
